Reference: patent US20250059271A1 (BARRELMAN BIOSCIENCES, published 2025)
Where a chain is given by its changes, count along the chain named.

Biological target: T1, dProgastrin-SUMO protein (dog, UniProt P01353 22-104)
T1 construct: Unknown whether the listing entry 103 holds the tag; also called dProg-Sumo protein; dog progastrin His-SUMO protein; not shown: N-terminal His-SUMO tag
T1 sequence: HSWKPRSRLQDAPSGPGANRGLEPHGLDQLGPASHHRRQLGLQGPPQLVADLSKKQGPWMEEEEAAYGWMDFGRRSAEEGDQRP
Assay: ELISA; supernatant 1:2000 on 2 ug/ml dProgastrin-Sumo
Experimental: Deep well ELISA reading of 46 different monoclonal antibodies against 2 μg/ml dProgastrin-Sumo protein antigen versus 2 μg/ml anti rabbit antibodies. Supernatants containing the antibodies were diluted at 1:2000. […] Monoclonal antibodies with strong specificities against the dProgastrin C terminus at low concentrations include the D6 mAb, A3 mAb, and F4 mAb, among others.

B1: dProg-2-D6 mAb (antibody, V domains shown)
VH: QSVKESEGGLFKPTEPLTLTCTVSGFSLSSDNMGWVRQTPGKQLEWIGWIGSSGSAYYARWAKSRSTITRNTNENTVTLKMTSLTAADTATYFCARSGWGSFDIWGPGTLVTVSS
VL: AQVLTQTPSPVSAAVGSTVTISCQSSQSVYSNNRLAWFQQKPGQPPKLLIYLASTLASGVPSRFKGSGSGTQFTLTISEVQCDDAATYYCQGYYSGYIFGFGGGTEVVVKG
notes: Recombinant rabbit monoclonal antibody; also called D6 mAb (C terminus); dprogastrin-2_D6
  OD: 2.02 OD

B2: dProg-2-F4 mAb (antibody, V domains shown)
VH: QSVEESRGGLFKPTEPLTLTCTASGFTISSYHMGWVRQTPGKQLEWIGWIGSSGATYYASWATSRSTITRNTNDNTVTLKMTSLTAADTATYFCARSGWGSFDIWGPGALVTVSS
VL: B1 VL with S9A, P10S, S17G, S22N, S31N, N33D, S78G, G92S, S95N
notes: Recombinant rabbit monoclonal antibody; same entries as dProg-2-A3; also called dprogastrin-2_F4
  OD: 1.99 OD

B3: dProg-2-A3 mAb (antibody, V domains shown)
VH: B2 VH
VL: B1 VL with S9A, P10S, S17G, S22N, S31N, N33D, S78G, G92S, S95N
notes: Recombinant rabbit monoclonal antibody; same entries as dProg-2-F4; Biotinylated when used for detection; also called dprogastrin-2_A3 mAb
  OD: 2.19 OD
